Measured values taken from patent publication US20080255046A1 (7TM PHARMA A S, published 2008).
Where no end group is shown, it is not given here. [ ]: non-standard residue; d: D form. Met(O) = CS(=O)CC[C@H](N)C(=O)O

How the values were obtained:
[1] = target: T1, rhesus monkey Y2 receptor (rhesus monkey, UniProt Q9GK74 1-381); test: competition binding with 125I-PYY on CHO cells stably expressing rhesus monkey Y2
T1 construct: whole, on cells; Transiently expressed in COS-7 cells together with the chimeric G protein Gqi5 for the potency assay; also called rhY2; rhesus monkey NPY-Receptor Y2
T1 sequence (looked up): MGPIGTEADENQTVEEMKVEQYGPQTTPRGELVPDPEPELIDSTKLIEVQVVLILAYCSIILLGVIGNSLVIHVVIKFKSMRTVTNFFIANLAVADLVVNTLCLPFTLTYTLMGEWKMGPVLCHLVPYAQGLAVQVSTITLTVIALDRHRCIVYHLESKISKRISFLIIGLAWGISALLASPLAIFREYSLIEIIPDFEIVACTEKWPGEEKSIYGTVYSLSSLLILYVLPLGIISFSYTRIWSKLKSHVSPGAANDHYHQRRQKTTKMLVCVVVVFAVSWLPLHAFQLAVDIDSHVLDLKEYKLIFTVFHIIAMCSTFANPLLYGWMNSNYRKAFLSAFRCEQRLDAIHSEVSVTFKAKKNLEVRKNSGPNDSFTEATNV
Experimental: (§1) The stable transfected CHO cells are transferred to 48-well culture plates one day prior assay at a density of 2,500 cells per well aiming at 5-8% binding of the radioactive ligand. […] Binding assays are performed in 0.5 ml of a 50 mM Hepes buffer, pH 7.4, supplemented with 1 mM CaCl2, 5 mM MgCl2, and 0.1% (w/v) bovine serum albumin and 100 μg/ml bacitracin. Non-specific binding is determined as the binding in the presence of 1 μM of unlabeled human PYY. Cells are washed twice in 0.5 ml of ice-cold buffer and 0.5-1 ml of lysis buffer (8 M Urea, 2% NP40 in 3 M acetic acid) is added and the bound radioactivity is counted in a gamma counter. Determinations are made in triplicates. […] IC50 values were calculated using a standard pharmacological data handling software, Prism 3.0 (graphpad Sofware, San Diego, USA). Ki-values are calculated according the Cheng-Prusoff equation (Cheng Y, Prusoff W H., Biochem Pharmacol. 1973): Ki=[IC50/(1+[L]/Kd)], where Ki is the equilibrium inhibitory constant for the cold ligand, Kd is the equilibrium constant for the radiolabeled (hot) ligand and L is the concentration of the radiolabeled ligand used.

[2] = target: T1, rhesus monkey Y2 receptor; test: cell-based or functional assay
[3] = target: rhesus monkey Y1 receptor (rhesus monkey); test: cell-based or functional assay
[4] = target: rhesus monkey Y4 receptor (rhesus monkey); test: cell-based or functional assay
[5] = target: T2, rhesus monkey Y1 receptor (rhesus monkey); test: competition binding on CHO cells expressing rhesus monkey Y1 (125I-PYY), compared with Y2
T2 construct: whole, on cells; also called rhY1
Experimental: as §1
Protocol as for the Y2 affinity assay, except that CHO cells stably expressing rhesus monkey Y1 are used and cells are transferred to culture plates at a density of 23,000 cells per well.

[6] = target: T3, rhesus monkey Y4 receptor (rhesus monkey); test: competition binding on CHO cells expressing rhesus monkey Y4 (125I-PP), compared with Y2
T3 construct: whole, on cells; also called rhY4
Experimental: as §1

B1: NPY (Neuropeptide Y), human sequence (peptide)
peptide: not shown
modifications: C-terminally amidated
Q: For B1, which Ki [1] is on record?
A: 0.11 nM

Q: And the “IP3 EC50 values at Y2” value [2]?
A: 0.6 nM

B2: [Lys4,Leu17,Met-sulfoxide30,Gln34]hPP (peptide)
peptide: APLKPVYPGDNATPEQLAQYAADLRRYIN[Met(O)]LTRQRY-NH2
modifications: N-terminus assumed
SMILES: CC[C@H](C)[C@H](NC(=O)[C@H](Cc1ccc(O)cc1)NC(=O)[C@H](CCCNC(=N)N)NC(=O)[C@H](CCCNC(=N)N)NC(=O)[C@H](CC(C)C)NC(=O)[C@H](CC(=O)O)NC(=O)[C@H](C)NC(=O)[C@H](C)NC(=O)[C@H](Cc1ccc(O)cc1)NC(=O)[C@H](CCC(N)=O)NC(=O)[C@H](C)NC(=O)[C@H](CC(C)C)NC(=O)[C@H](CCC(N)=O)NC(=O)[C@H](CCC(=O)O)NC(=O)[C@@H]1CCCN1C(=O)[C@@H](NC(=O)[C@H](C)NC(=O)[C@H](CC(N)=O)NC(=O)[C@H](CC(=O)O)NC(=O)CNC(=O)[C@@H]1CCCN1C(=O)[C@H](Cc1ccc(O)cc1)NC(=O)[C@@H](NC(=O)[C@@H]1CCCN1C(=O)[C@H](CCCCN)NC(=O)[C@H](CC(C)C)NC(=O)[C@@H]1CCCN1C(=O)[C@H](C)N)C(C)C)[C@@H](C)O)C(=O)N[C@@H](CC(N)=O)C(=O)N[C@@H](CCS(C)=O)C(=O)N[C@@H](CC(C)C)C(=O)N[C@H](C(=O)N[C@@H](CCCNC(=N)N)C(=O)N[C@@H](CCC(N)=O)C(=O)N[C@@H](CCCNC(=N)N)C(=O)N[C@@H](Cc1ccc(O)cc1)C(N)=O)[C@@H](C)O
notes: Human PP with Lys at 4, Leu at 17, oxidised Met at 30 and Gln at 34; also called [Lys4, Leu17, Met(O)30, Gln34]-PP; [Lys4,Leu17,oxidised Met30,Gln34]hPP
Q: B2 was tested. Which “fold selectivity in the potency assay (Y2 against Y1)” value [3] did it give?
A: ≥ 100 fold

Q: What about the “fold selectivity in the potency assay (Y2 against Y4)” value [4] of the same binder?
A: ≥ 20 fold

Q: And the Ki [1]?
A: 0.06 nM

Q: What about the “fold selectivity (affinity at Y2 against Y1)” value [5] of the same binder?
A: ≥ 100 fold

Q: And the “IP3 EC50 values at Y2” value [2]?
A: 0.5 nM

Q: And the “fold selectivity (affinity at Y2 against Y4)” value [6]?
A: ≥ 20 fold

B3: [Lys4,Leu17,Thr30,Gln34]hPP (peptide)
peptide: APLKPVYPGDNATPEQLAQYAADLRRYINTLTRQRY-NH2
notes: Human PP with Lys at 4, Leu at 17, Thr at 30 and Gln at 34; also called [Lys4, Leu17, Thr30, Gln34]-PP; peptide (ii)
Q: For B3, which “fold selectivity in the potency assay (Y2 against Y1)” value [3] is on record?
A: ≥ 100 fold

Q: What about the “fold selectivity in the potency assay (Y2 against Y4)” value [4] of the same binder?
A: ≥ 20 fold

Q: What about the Ki [1] of the same binder?
A: 0.47 nM

Q: What about the “fold selectivity (affinity at Y2 against Y1)” value [5] of the same binder?
A: ≥ 100 fold

Q: What about the “IP3 EC50 values at Y2” value [2] of the same binder?
A: 0.71 nM

Q: What about the “fold selectivity (affinity at Y2 against Y4)” value [6] of the same binder?
A: ≥ 20 fold

B4: [Lys4,Leu17,Ser30,Gln34]hPP (peptide)
peptide: APLKPVYPGDNATPEQLAQYAADLRRYINSLTRQRY-NH2
notes: also called [Lys4, Leu17, Ser30, Gln34]-PP; peptide (i)
Q: What does the source list for B4?
A: fold selectivity in the potency assay (Y2 against Y1) [3]: ≥ 100 fold; fold selectivity in the potency assay (Y2 against Y4) [4]: ≥ 20 fold; Ki [1]: 0.51 nM; fold selectivity (affinity at Y2 against Y1) [5]: ≥ 100 fold; IP3 EC50 values at Y2 [2]: 0.67 nM; fold selectivity (affinity at Y2 against Y4) [6]: ≥ 20 fold

Q: For APLEPVYPGDNATPEQMAQYAADLRRYINMLTRPRY-NH2 [PP (Pancreatic Polypeptide), human sequence], which “IP3 EC50 values at Y2 (nM)” value [2] is on record?
A: > 1000 nM

B5: PYY (Peptide YY), human sequence (peptide)
peptide: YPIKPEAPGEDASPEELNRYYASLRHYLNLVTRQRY
modifications: C-terminally amidated
notes: also called PYY1-36; human PYY
Q: What does the source list for B5?
A: Ki [1]: 0.09 nM; IP3 EC50 values at Y2 [2]: 0.18 nM
